Assay results reported in patent US5688488A, “Composition and method for tumor imaging” (priority 1995, dated 1997).
Like-named read-outs stand apart in the source and are kept apart here. One block for each molecule: values may come before it.

Columns and labels:
KB cells = experiment: Uptake of ^67 Ga-DF-folate complex by cultured KB cells; type: cell-based, human
Procedure: Cell Culture. KB cells, a human nasopharyngeal epidermal carcinoma cell line that greatly overexpresses the folate binding protein, were cultured continuously as a monolayer at 37° C. in a humidified atmosphere containing 5% CO2 in folate-deficient modified Eagle's medium (FDMEM) (a folate-free modified Eagle's medium supplemented with 10% (v/v) heat-inactivated fetal calf serum as the only source of folate) containing penicillin (50 units/mL), streptomycin (50 μg/mL), and 2 mM L-glutamine. The final folate concentration in the complete FDMEM is the physiological range (~2 nM). 48 h prior to each experiment, the cells were transferred to 35 mm culture dishes at 5×10^5 cells per dish and grown to ~80% confluent.
Because folate and its conjugates bind to cell surface receptors at 4° C., but are capable of endocytosis only at higher temperatures, it is possible to separately evaluate the kinetics of binding the internalization of folate by measuring the rates of folate conjugate uptake at the two temperatures. […] By the end of the 30 min incubation, binding approached to saturation with ~18% of the initial radioactivity found associated with a cell surface.
Incubation at 37° C., a temperature which permits both binding and endocytosis, yielded similar kinetic results, however, maximal uptake reached 32% of the total conjugate added. Presumably, the difference in magnitude of the two cellular uptake curves reflects the ability of the folate receptor to internalize the conjugate and then recycle to the cell surface in its unoccupied form. […] This latter result is consistent with the inability of the α-conjugate to compete with free folate for the cell surface receptor.
To verify the involvement of a cell surface folate receptor in mediating the uptake of ^67 Ga-DF-folate(γ), binding and internalization of the complex were evaluated as a function of the complex's concentration. Cellular uptake of ^67 Ga-DF-folate(γ) was concentration dependent at both 4° C. and 37° C., saturating at levels of 20% and 35% of the total radioactivity added, respectively.

[1] = test system: Subcutaneous KB Cell Tumors; details: mouse, in vivo, iv; for Tumor-to-Non-target Ratio: Tumor/blood / Tumor-to-Non-target Ratio: Tumor/kidney / Tumor-to-Non-target Ratio: Tumor/liver / Tumor-to-Non-target Ratio: Tumor/muscle: 240 min; for Percentage of Injected Dose per Gram of Tissue: Blood / Percentage of Injected Dose per Gram of Tissue: Heart / Percentage of Injected Dose per Gram of Tissue: Kidney / Percentage of Injected Dose per Gram of Tissue: Liver / Percentage of Injected Dose per Gram of Tissue: Lungs / Percentage of Injected Dose per Gram of Tissue: Muscle / Percentage of Injected Dose per Gram of Tissue: Tumor: 4 h
KB Tumors [2] = details: mouse, in vivo, iv
KB Tumors [3] = experiment: Biodistribution of ^125 I-RNase-Folate conjugate and ^125 I-RNase control following I.V. administration to athymic mice with KB tumors; details: folate-free diet
[4] = In vivo delivery to mice of ^125 I soybean trypsin inhibitor; details: 15 minutes after tail vein injection, perfused
Procedure: Mice (25 g) were then injected with either the biotinylated SBTI or the control SBTI by insertion of a hypodermic syringe containing a 25 gauge needle into the tail vein of the mouse. After 15 minutes, each mouse was sacrificed and then perfused with heparin-containing isotonic saline via the direct cardiac influx and efflux method.

[5] = test system: KB cells (a human nasopharyngeal cell line); experiment: Uptake of ^125 I-labeled folate-labeled protein by KB cells; type: cell-based; details: procedure of Example 17

Tumor-to-Non-target Ratio: Tumor/blood [1]: 3.9 ± 1.2
Tumor-to-Non-target Ratio: Tumor/kidney [1]: 0.08 ± 0.01
Tumor-to-Non-target Ratio: Tumor/liver [1]: 1.16 ± 0.10
Tumor-to-Non-target Ratio: Tumor/muscle [1]: 2.56 ± 0.15
Percentage of Injected Dose per Gram of Tissue: Kidney [1]: 1.26 ± 0.19 % of injected dose per gram
Molecule: CC(=O)N([O-])CCCCCNC(=O)CCC(=O)N([O-])CCCCCNC(=O)CCC(=O)N([O-])CCCCCN.[67Ga+3] [^67 Ga-DF, reference compound]
uptake by the KB cells (KB cells; controls): did not show any significant uptake
Percentage of Injected Dose per Gram of Tissue: Blood [1]: 0.026 ± 0.009 % of injected dose per gram
Percentage of Injected Dose per Gram of Tissue: Heart [1]: 0.021 ± 0.002 % of injected dose per gram
Percentage of Injected Dose per Gram of Tissue: Liver [1]: 0.082 ± 0.010 % of injected dose per gram
Percentage of Injected Dose per Gram of Tissue: Lungs [1]: 0.054 ± 0.010 % of injected dose per gram
Percentage of Injected Dose per Gram of Tissue: Muscle [1]: 0.037 ± 0.001 % of injected dose per gram
Percentage of Injected Dose per Gram of Tissue: Tumor [1]: 0.094 ± 0.004 % of injected dose per gram

Tumor-to-Non-target Ratio: Tumor/blood [1]: 0.84 ± 0.19
Tumor-to-Non-target Ratio: Tumor/kidney [1]: 2.4 ± 0.3
Tumor-to-Non-target Ratio: Tumor/liver [1]: 2.3 ± 0.2
Tumor-to-Non-target Ratio: Tumor/muscle [1]: 5.4 ± 0.7
Percentage of Injected Dose per Gram of Tissue: Blood [1]: 13.5 ± 3.2 % of injected dose per gram
Percentage of Injected Dose per Gram of Tissue: Heart [1]: 3.4 ± 0.2 % of injected dose per gram
Percentage of Injected Dose per Gram of Tissue: Kidney [1]: 4.6 ± 0.4 % of injected dose per gram
Percentage of Injected Dose per Gram of Tissue: Liver [1]: 4.7 ± 0.3 % of injected dose per gram
Percentage of Injected Dose per Gram of Tissue: Lungs [1]: 9.1 ± 2.7 % of injected dose per gram
Percentage of Injected Dose per Gram of Tissue: Muscle [1]: 2.04 ± 0.29 % of injected dose per gram
Percentage of Injected Dose per Gram of Tissue: Tumor [1]: 10.9 ± 0.2 % of injected dose per gram
Molecule: O=C([O-])CC(O)(CC(=O)[O-])C(=O)[O-].[67Ga+3] [^67 Ga-citrate, reference compound]
cell-associated ^67 Ga radioactivity, fold lower than ^67 Ga-DF-folate(γ) (KB cells; 37° C., 30 min): 106 fold

B1: ^125 I-RNase-Folate: ^125 I labeled ribonuclease-folate conjugate (conjugate, UniProt P61823 27-150, looked up)
Ribonuclease pancreatic: KETAAAKFERQHMDSSTSAASSSNYCNQMMKSRNLTKDRCKPVNTFVHESLADVQAVCSQKNVACKNGQTNCYQSYSTMSITDCRETGSSKYPNCAYKTTQANKHIIVACEGNPYVPVHFDASV
modifications: 125I label; folate conjugated
Percentage of Injected Dose per Gram: Blood (KB Tumors [2]; 1 h): 5.34 ± 1.07 % of injected dose per gram
Percentage of Injected Dose per Gram: Bone (KB Tumors [2]; 1 h): 3.20 ± 0.23 % of injected dose per gram
Percentage of Injected Dose per Gram: Heart (KB Tumors [2]; 1 h): 2.01 ± 0.22 % of injected dose per gram
Percentage of Injected Dose per Gram: Intestines (KB Tumors [2]; 1 h): 2.03 ± 0.28 % of injected dose per gram
Percentage of Injected Dose per Gram: Kidney (KB Tumors [2]; 1 h): 16.08 ± 2.76 % of injected dose per gram
Percentage of Injected Dose per Gram: Liver (KB Tumors [2]; 1 h): 9.78 ± 1.11 % of injected dose per gram
Percentage of Injected Dose per Gram: Lungs (KB Tumors [2]; 1 h): 4.19 ± 0.61 % of injected dose per gram
Percentage of Injected Dose per Gram: Muscle (KB Tumors [2]; 1 h): 1.73 ± 0.32 % of injected dose per gram
Percentage of Injected Dose per Gram: Spleen (KB Tumors [2]; 1 h): 9.94 ± 1.37 % of injected dose per gram
Percentage of Injected Dose per Gram: Stomach (KB Tumors [2]; 1 h): 21.07 ± 2.57 % of injected dose per gram
Percentage of Injected Dose per Gram: Testes (KB Tumors [2]; 1 h): 1.50 ± 0.18 % of injected dose per gram
Percentage of Injected Dose per Gram: Tumor (KB Tumors [2]; 1 h): 5.35 ± 0.54 % of injected dose per gram
Tumor/Blood (KB Tumors [2]; 60 min): 1.02 ± 0.16
Tumor/Muscle (KB Tumors [2]; 60 min): 3.14 ± 0.43
Percentage of Injected Dose per Gram: Blood (KB Tumors [2]; 4 h): 2.30 ± 0.62 % of injected dose per gram
Percentage of Injected Dose per Gram: Bone (KB Tumors [2]; 4 h): 1.17 ± 0.28 % of injected dose per gram
Percentage of Injected Dose per Gram: Heart (KB Tumors [2]; 4 h): 0.93 ± 0.39 % of injected dose per gram
Percentage of Injected Dose per Gram: Intestines (KB Tumors [2]; 4 h): 0.95 ± 0.16 % of injected dose per gram
Percentage of Injected Dose per Gram: Kidney (KB Tumors [2]; 4 h): 5.11 ± 1.27 % of injected dose per gram
Percentage of Injected Dose per Gram: Liver (KB Tumors [2]; 4 h): 3.29 ± 0.77 % of injected dose per gram
Percentage of Injected Dose per Gram: Lungs (KB Tumors [2]; 4 h): 1.97 ± 0.77 % of injected dose per gram
Percentage of Injected Dose per Gram: Muscle (KB Tumors [2]; 4 h): 0.98 ± 0.54 % of injected dose per gram
Percentage of Injected Dose per Gram: Spleen (KB Tumors [2]; 4 h): 2.78 ± 0.73 % of injected dose per gram
Percentage of Injected Dose per Gram: Stomach (KB Tumors [2]; 4 h): 26.45 ± 8.05 % of injected dose per gram
Percentage of Injected Dose per Gram: Testes (KB Tumors [2]; 4 h): 1.0 ± 0.15 % of injected dose per gram
Tumor/Blood (KB Tumors [2]; 1440 min): 11.88 ± 3.71
Tumor/Muscle (KB Tumors [2]; 1440 min): 32.6 ± 6.7
Percentage of Injected Dose per Gram: Blood (KB Tumors [2]; 24 h): 0.04 ± 0.01 % of injected dose per gram
Percentage of Injected Dose per Gram: Bone (KB Tumors [2]; 24 h): 0.09 ± 0.03 % of injected dose per gram
Percentage of Injected Dose per Gram: Heart (KB Tumors [2]; 24 h): 0.024 ± 0.006 % of injected dose per gram
Percentage of Injected Dose per Gram: Intestines (KB Tumors [2]; 24 h): 0.05 ± 0.006 % of injected dose per gram
Percentage of Injected Dose per Gram: Kidney (KB Tumors [2]; 24 h): 0.72 ± 0.07 % of injected dose per gram
Percentage of Injected Dose per Gram: Liver (KB Tumors [2]; 24 h): 0.38 ± 0.03 % of injected dose per gram
Percentage of Injected Dose per Gram: Lungs (KB Tumors [2]; 24 h): 0.04 ± 0.01 % of injected dose per gram
Percentage of Injected Dose per Gram: Muscle (KB Tumors [2]; 24 h): 0.013 ± 0.002 % of injected dose per gram
Percentage of Injected Dose per Gram: Spleen (KB Tumors [2]; 24 h): 0.23 ± 0.04 % of injected dose per gram
Percentage of Injected Dose per Gram: Stomach (KB Tumors [2]; 24 h): 0.26 ± 0.14 % of injected dose per gram
Percentage of Injected Dose per Gram: Testes (KB Tumors [2]; 24 h): 0.021 ± 0.004 % of injected dose per gram
Percentage of Injected Dose per Gram: Tumor (KB Tumors [2]; 24 h): 0.41 ± 0.02 % of injected dose per gram
Percentage of Injected Dose per Gram: Brain (KB Tumors [3]; 1 hour after i.v.): 0.29 ± 0.04 % of injected dose per gram
Percentage of Injected Dose per Gram: Brain (KB Tumors [3]; 4 hours after i.v.): 0.19 ± 0.14 % of injected dose per gram
Percentage of Injected Dose per Gram: Brain (KB Tumors [3]; 24 hours after i.v.): 0.007 ± 0.001 % of injected dose per gram

B2: ^125 I-RNase: ^125 I labeled ribonuclease (lacking folate), control (protein, UniProt P61823 27-150, looked up)
Ribonuclease pancreatic: KETAAAKFERQHMDSSTSAASSSNYCNQMMKSRNLTKDRCKPVNTFVHESLADVQAVCSQKNVACKNGQTNCYQSYSTMSITDCRETGSSKYPNCAYKTTQANKHIIVACEGNPYVPVHFDASV
modifications: 125I label
Percentage of Injected Dose per Gram: Brain (KB Tumors [3]; 1 hour after i.v.): 0.19 ± 0.06 % of injected dose per gram
Percentage of Injected Dose per Gram: Brain (KB Tumors [3]; 4 hours after i.v.): 0.06 ± 0.004 % of injected dose per gram
Percentage of Injected Dose per Gram: Brain (KB Tumors [3]; 24 hours after i.v.): 0.0055 ± 0.0006 % of injected dose per gram

B3: Control SBTI: ^125 I soybean trypsin inhibitor left as an unmodified control (protein, UniProt P01070 25-205, looked up)
Trypsin inhibitor A: DFVLDNEGNPLENGGTYYILSDITAFGGIRAAPTGNERCPLTVVQSRNELDKGIGTIISSPYRIRFIAEGHPLSLKFDSFAVIMLCVGIPTEWSVVEDLPEGPAVKIGENKDAMDGWFRLERVSDDEFNNYKLVFCPQQAEDDKCGDIGISIDHDDGTRRLVVSKNKPLVVQFQKLDKESL
modifications: 125I label
Counts per minute/gram wet weight: Brain [4]: 0 Counts per minute/gram wet weight
Counts per minute/gram wet weight: Heart [4]: 0 Counts per minute/gram wet weight
Counts per minute/gram wet weight: Intestine [4]: 0 Counts per minute/gram wet weight
Counts per minute/gram wet weight: Kidney [4]: 5152 Counts per minute/gram wet weight
Counts per minute/gram wet weight: Liver [4]: 535 Counts per minute/gram wet weight
Counts per minute/gram wet weight: Lung [4]: 107 Counts per minute/gram wet weight
Counts per minute/gram wet weight: Muscle [4]: 0 Counts per minute/gram wet weight

B4: SBTI: soybean trypsin inhibitor, folate-ligated as in Example 17 (conjugate, UniProt P01070 25-205, looked up)
Trypsin inhibitor A: DFVLDNEGNPLENGGTYYILSDITAFGGIRAAPTGNERCPLTVVQSRNELDKGIGTIISSPYRIRFIAEGHPLSLKFDSFAVIMLCVGIPTEWSVVEDLPEGPAVKIGENKDAMDGWFRLERVSDDEFNNYKLVFCPQQAEDDKCGDIGISIDHDDGTRRLVVSKNKPLVVQFQKLDKESL
modifications: folate conjugated
uptake of SBTI by KB cells [5]: Folate ligation was again demonstrated to be essential for uptake
